Tested on: hPSC-SMPCs
Test: Passaging and expansion of hPSC-SMPCs with added factors, gene expression
Format: cell-based, human
Experimental: At day 50, myogenic genes PAX7, MYF5, MYOD, MYOG, and MYH3 were measured by QPCR and expressed as fold-change versus day 35 of directed differentiation. […] Subsequently, IGF-1 was added to N2 media in all experiments (FIGS. 5-8, 10A-10D, 10F, 11, and 12A-12E). […] Subsequently, FGF2 was added to SkBM-2 media in experiments (FIGS. 5-8, 10A-10D, 10F, 11, and 12A-12E).
HiPSC-SMPC subpopulations enrich for PAX7 but activate and increase expression of MYOD after passaging. […] (FIG. 9A).

B1: WNT7A: Wnt family member added to SKBM2 expansion media (protein, UniProt O00755 32-349, looked up)
Protein Wnt-7a: LGASIICNKIPGLAPRQRAICQSRPDAIIVIGEGSQMGLDECQFQFRNGRWNCSALGERTVFGKELKVGSREAAFTYAIIAAGVAHAITAACTQGNLSDCGCDKEKQGQYHRDEGWKWGGCSADIRYGIGFAKVFVDAREIKQNARTLMNLHNNEAGRKILEENMKLECKCHGVSGSCTTKTCWTTLPQFRELGYVLKDKYNEAVHVEPVRASRNKRPTFLKIKKPLSYRKPMDTDLVYIEKSPNYCEEDPVTGSVGTQGRACNKTAPQASGCDLMCCGRGYNTHQYARVWQCNCKFHWCCYVKCNTCSERTEMYTCK
stemness factors HEYL and CJUN (passaged SMPCs in SKBM2): stabilize or increase stemness factors
PAX7 expression during expansion (passaged SMPCs, compared to SKBM2 alone): rescues PAX7 expression

From patent US12365875B2, “Methods for generating skeletal muscle progenitor cells” (The Regents of the University of California, priority 2017, dated 2025)
